The values below come from article PMC8528075.

The test has as its target SARS-CoV-2 S2P spike (prefusion-stabilized trimer) (SARS-CoV-2 Wuhan-Hu-1). Put plainly: cryo-EM structure.

On to 2–36 Fab, for which the stoichiometry N (Fabs per spike) came out at 3.
